Measurements taken from article PMC10786891, “Massively parallel profiling of RNA-targeting CRISPR-Cas13d”.

T1: EsCas13d, nuclease-dead (Eubacterium siraeum, UniProt B0MS50, R295A;H300A;R849A;H854A)
T1 sequence: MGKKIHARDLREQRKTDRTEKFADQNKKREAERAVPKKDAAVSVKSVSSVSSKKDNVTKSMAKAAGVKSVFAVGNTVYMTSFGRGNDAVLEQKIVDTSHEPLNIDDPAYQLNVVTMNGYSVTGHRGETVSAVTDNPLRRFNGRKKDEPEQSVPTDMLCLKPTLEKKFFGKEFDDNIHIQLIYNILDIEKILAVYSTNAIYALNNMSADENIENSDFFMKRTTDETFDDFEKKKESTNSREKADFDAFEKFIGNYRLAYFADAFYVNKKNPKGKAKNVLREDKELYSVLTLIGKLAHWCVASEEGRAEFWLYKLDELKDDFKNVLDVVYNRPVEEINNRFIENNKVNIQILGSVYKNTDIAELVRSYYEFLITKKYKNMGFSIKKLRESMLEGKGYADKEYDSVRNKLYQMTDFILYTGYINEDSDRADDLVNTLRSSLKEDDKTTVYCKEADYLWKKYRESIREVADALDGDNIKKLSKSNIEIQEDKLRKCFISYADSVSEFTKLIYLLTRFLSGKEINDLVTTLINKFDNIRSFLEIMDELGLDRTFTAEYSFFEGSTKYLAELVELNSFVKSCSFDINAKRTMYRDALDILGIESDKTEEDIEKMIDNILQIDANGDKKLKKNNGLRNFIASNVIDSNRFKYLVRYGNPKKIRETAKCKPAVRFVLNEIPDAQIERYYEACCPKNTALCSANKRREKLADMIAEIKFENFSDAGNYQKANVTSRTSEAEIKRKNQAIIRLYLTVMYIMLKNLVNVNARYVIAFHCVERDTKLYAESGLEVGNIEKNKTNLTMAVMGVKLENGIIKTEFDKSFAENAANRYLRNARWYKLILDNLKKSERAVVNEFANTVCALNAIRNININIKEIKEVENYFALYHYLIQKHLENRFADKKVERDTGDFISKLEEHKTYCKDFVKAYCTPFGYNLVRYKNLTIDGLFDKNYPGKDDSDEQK


Target: T1, EsCas13d, nuclease-dead
Experiment: crRNA (strand 1, pre-loaded); Mg2+; 40 mM Tris-HCl pH 7.5, 150 mM NaCl, 6 mM MgCl2, 1 mM DTT, 0.1% Tween-20, 0.2 mg/ml BSA; 25 C; 10 min per concentration, then washed
Conditions: tags: His6-TwinStrep-SUMO cleaved; N-terminal SNAP kept (SNAP-Surface 488); label: 3' end held by stalled T7 RNA polymerase

| Binder | Kd |
| --- | --- |
| target 2 MT 5'PFS UAA 3'PFS AGC (mixed) RNA 1: CACCCGUGCAAAAUUGCAGGGGUCUAAAACCUUCUCCAAAUUGUUUCAUCCU RNA 2: GGGAAUGGAUCCACAUCUACGAAUUCUAAAGGAUGAAACAAUUUGGAGAAGAGCAGAUCGGAAGAGCACACGU | 3.2 ± 0.4 nM |
| target 2 MT 5'PFS CUG 3'PFS UCG (mixed) RNA 1: CACCCGUGCAAAAUUGCAGGGGUCUAAAACCUUCUCCAAAUUGUUUCAUCCU RNA 2: GGGAAUGGAUCCACAUCUACGAAUUCCUGAGGAUGAAACAAUUUGGAGAAGUCGAGAUCGGAAGAGCACACGU | 3.1 ± 0.4 nM |
| target 2 MT 5'PFS UAC 3'PFS CGC (mixed) RNA 1: CACCCGUGCAAAAUUGCAGGGGUCUAAAACCUUCUCCAAAUUGUUUCAUCCU RNA 2: GGGAAUGGAUCCACAUCUACGAAUUCUACAGGAUGAAACAAUUUGGAGAAGCGCAGAUCGGAAGAGCACACGU | 5.5 ± 0.8 nM |
| target 2 MT 5'PFS CUG 3'PFS UCC (mixed) RNA 1: CACCCGUGCAAAAUUGCAGGGGUCUAAAACCUUCUCCAAAUUGUUUCAUCCU RNA 2: GGGAAUGGAUCCACAUCUACGAAUUCCUGAGGAUGAAACAAUUUGGAGAAGUCCAGAUCGGAAGAGCACACGU | 6.1 ± 0.5 nM |
| target 2 MT 5'PFS UAC 3'PFS CGA (mixed) RNA 1: CACCCGUGCAAAAUUGCAGGGGUCUAAAACCUUCUCCAAAUUGUUUCAUCCU RNA 2: GGGAAUGGAUCCACAUCUACGAAUUCUACAGGAUGAAACAAUUUGGAGAAGCGAAGAUCGGAAGAGCACACGU | 6 ± 1.9 nM |
| target 2 MT 5'PFS GGU 3'PFS UGC (mixed) RNA 1: CACCCGUGCAAAAUUGCAGGGGUCUAAAACCUUCUCCAAAUUGUUUCAUCCU RNA 2: GGGAAUGGAUCCACAUCUACGAAUUCGGUAGGAUGAAACAAUUUGGAGAAGUGCAGAUCGGAAGAGCACACGU | 23 ± 4 nM |
| target 2 MT 5'PFS AAU 3'PFS ACU (mixed) RNA 1: CACCCGUGCAAAAUUGCAGGGGUCUAAAACCUUCUCCAAAUUGUUUCAUCCU RNA 2: GGGAAUGGAUCCACAUCUACGAAUUCAAUAGGAUGAAACAAUUUGGAGAAGACUAGAUCGGAAGAGCACACGU | 6.2 ± 0.7 nM |
| target 2 MT 5'PFS CUG 3'PFS UCA (mixed) RNA 1: CACCCGUGCAAAAUUGCAGGGGUCUAAAACCUUCUCCAAAUUGUUUCAUCCU RNA 2: GGGAAUGGAUCCACAUCUACGAAUUCCUGAGGAUGAAACAAUUUGGAGAAGUCAAGAUCGGAAGAGCACACGU | 5 ± 0.6 nM |
| target 2 MT 5'PFS UAA 3'PFS AGG (mixed) RNA 1: CACCCGUGCAAAAUUGCAGGGGUCUAAAACCUUCUCCAAAUUGUUUCAUCCU RNA 2: GGGAAUGGAUCCACAUCUACGAAUUCUAAAGGAUGAAACAAUUUGGAGAAGAGGAGAUCGGAAGAGCACACGU | 4.5 ± 0.6 nM |
| target 2 MT 5'PFS UAC 3'PFS CGG (mixed) RNA 1: CACCCGUGCAAAAUUGCAGGGGUCUAAAACCUUCUCCAAAUUGUUUCAUCCU RNA 2: GGGAAUGGAUCCACAUCUACGAAUUCUACAGGAUGAAACAAUUUGGAGAAGCGGAGAUCGGAAGAGCACACGU | 3.6 ± 0.5 nM |
| target 2 MT 5'PFS UAA 3'PFS AGA (mixed) RNA 1: CACCCGUGCAAAAUUGCAGGGGUCUAAAACCUUCUCCAAAUUGUUUCAUCCU RNA 2: GGGAAUGGAUCCACAUCUACGAAUUCUAAAGGAUGAAACAAUUUGGAGAAGAGAAGAUCGGAAGAGCACACGU | 3.4 ± 0.6 nM |
| target 2 MT 5'PFS GUC 3'PFS CGU (mixed) RNA 1: CACCCGUGCAAAAUUGCAGGGGUCUAAAACCUUCUCCAAAUUGUUUCAUCCU RNA 2: GGGAAUGGAUCCACAUCUACGAAUUCGUCAGGAUGAAACAAUUUGGAGAAGCGUAGAUCGGAAGAGCACACGU | 17.5 ± 2.8 nM |
| target 1 G5U,C6G (mixed) RNA 1: CACCCGUGCAAAAAUGCAGGGGUCUAAAACUGAGCGGAUAACCUCUCUAUGG RNA 2: GGGAAUGGAUCCACAUCUACGAAUUCGUACCAUAGAGAGGUUAUCGUCUCACCGAGAUCGGAAGAGCACACGU | 9.5 ± 0.32 nM |
